From publication PMC12248280

Target: hDPP4-Fc (human DPP4 residues 39 to 766 fused at its C terminus to the Fc domain of human IgG) (human) (UniProt P27487)
Assay: BLI

Sequence of UniProt P27487 (P27487 39-766): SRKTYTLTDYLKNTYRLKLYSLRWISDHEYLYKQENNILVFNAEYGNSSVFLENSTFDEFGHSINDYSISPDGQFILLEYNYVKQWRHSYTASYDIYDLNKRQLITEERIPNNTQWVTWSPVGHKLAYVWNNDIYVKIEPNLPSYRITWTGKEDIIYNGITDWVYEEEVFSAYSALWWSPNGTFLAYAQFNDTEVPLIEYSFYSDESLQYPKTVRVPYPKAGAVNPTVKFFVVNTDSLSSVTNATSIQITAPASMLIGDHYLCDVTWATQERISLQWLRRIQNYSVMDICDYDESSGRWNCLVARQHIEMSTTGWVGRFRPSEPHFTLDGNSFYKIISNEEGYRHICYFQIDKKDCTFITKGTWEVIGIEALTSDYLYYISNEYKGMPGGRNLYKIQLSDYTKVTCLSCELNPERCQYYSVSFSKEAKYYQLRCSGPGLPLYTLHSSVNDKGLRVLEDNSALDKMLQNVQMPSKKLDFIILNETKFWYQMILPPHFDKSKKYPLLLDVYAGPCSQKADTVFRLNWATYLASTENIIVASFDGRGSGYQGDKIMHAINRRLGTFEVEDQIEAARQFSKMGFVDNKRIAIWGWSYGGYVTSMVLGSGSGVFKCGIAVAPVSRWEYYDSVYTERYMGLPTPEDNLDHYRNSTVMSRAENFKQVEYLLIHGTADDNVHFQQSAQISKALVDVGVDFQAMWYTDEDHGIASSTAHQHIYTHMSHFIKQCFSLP

Which Kd does the source give for “GD-BatCoV-S (GD-BatCoV S-trimer, GD-BatCoV-S-6P) (domain or fragment)” here?
Its Kd is 5.3 nM.
